B1: 21C25 (C-terminal 25-residue peptide of FGF21) (peptide)
peptide: PPDVGSSDPLSMVGPSQGRSPSYAS-NH2
B2: 21C25 V160A (peptide)
chain: PPDAGSSDPLSMVGPSQGRSPSYAS-NH2
B3: 21C25 P158A (peptide)
chain: PADVGSSDPLSMVGPSQGRSPSYAS-NH2
B4: 21C25 S167A (peptide)
chain: PPDVGSSDPLAMVGPSQGRSPSYAS-NH2
B5: 21C25 S176A (peptide)
chain: PPDVGSSDPLSMVGPSQGRAPSYAS-NH2
B6: 21C25 G174A (peptide)
chain: PPDVGSSDPLSMVGPSQARSPSYAS-NH2
B7: 21C25 G161A (peptide)
chain: PPDVASSDPLSMVGPSQGRSPSYAS-NH2
B8: 21C25 V169A (peptide)
chain: PPDVGSSDPLSMAGPSQGRSPSYAS-NH2
B9: 21C25 Q173A (peptide)
chain: PPDVGSSDPLSMVGPSAGRSPSYAS-NH2
B10: 21C25 Y179A (peptide)
chain: PPDVGSSDPLSMVGPSQGRSPSAAS-NH2
B11: 21C25 R175A (peptide)
chain: PPDVGSSDPLSMVGPSQGASPSYAS-NH2
B12: 21C25 P177A (peptide)
chain: PPDVGSSDPLSMVGPSQGRSASYAS-NH2
B13: 21C25 G170A (peptide)
chain: PPDVGSSDPLSMVAPSQGRSPSYAS-NH2
B14: 21C25 D159A (peptide)
chain: PPAVGSSDPLSMVGPSQGRSPSYAS-NH2
B15: 21C25 S163A (peptide)
chain: PPDVGSADPLSMVGPSQGRSPSYAS-NH2
B16: 21C25 S178A (peptide)
chain: PPDVGSSDPLSMVGPSQGRSPAYAS-NH2
B17: 21C25 S162A (peptide)
chain: PPDVGASDPLSMVGPSQGRSPSYAS-NH2
B18: 21C25 S181A (peptide)
chain: PPDVGSSDPLSMVGPSQGRSPSYAA-NH2
B19: 21C25 S172A (peptide)
chain: PPDVGSSDPLSMVGPAQGRSPSYAS-NH2
B20: 21C25 P171A (peptide)
chain: PPDVGSSDPLSMVGASQGRSPSYAS-NH2
B21: 21C25 P157A (peptide)
chain: APDVGSSDPLSMVGPSQGRSPSYAS-NH2

Ends that are not written are not given here.

The target in one test is T1, Soluble human FGFR1c/KLB receptor complex (FGFR1c ectodomain-Fc with soluble KLB) (human, UniProt P11362 22-376; Q86Z14 1-996). Put plainly: AlphaScreen competition with biotinylated FGF21. In general terms: Alpha assays give light when donor and acceptor beads are brought close together.
T1 sequence (P11362 22-376, chain 1 of 2): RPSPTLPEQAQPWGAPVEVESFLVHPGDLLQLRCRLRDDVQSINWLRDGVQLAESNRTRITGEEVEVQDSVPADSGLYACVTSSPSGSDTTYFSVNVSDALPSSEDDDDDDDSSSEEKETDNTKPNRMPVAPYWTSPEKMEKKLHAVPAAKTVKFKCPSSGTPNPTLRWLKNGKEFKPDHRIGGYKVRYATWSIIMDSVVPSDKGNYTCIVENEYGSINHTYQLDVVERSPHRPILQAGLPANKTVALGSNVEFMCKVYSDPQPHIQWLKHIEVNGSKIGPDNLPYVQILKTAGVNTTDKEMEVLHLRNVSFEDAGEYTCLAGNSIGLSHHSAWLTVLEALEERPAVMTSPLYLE
T1 sequence (Q86Z14 53-996, chain 2 of 2): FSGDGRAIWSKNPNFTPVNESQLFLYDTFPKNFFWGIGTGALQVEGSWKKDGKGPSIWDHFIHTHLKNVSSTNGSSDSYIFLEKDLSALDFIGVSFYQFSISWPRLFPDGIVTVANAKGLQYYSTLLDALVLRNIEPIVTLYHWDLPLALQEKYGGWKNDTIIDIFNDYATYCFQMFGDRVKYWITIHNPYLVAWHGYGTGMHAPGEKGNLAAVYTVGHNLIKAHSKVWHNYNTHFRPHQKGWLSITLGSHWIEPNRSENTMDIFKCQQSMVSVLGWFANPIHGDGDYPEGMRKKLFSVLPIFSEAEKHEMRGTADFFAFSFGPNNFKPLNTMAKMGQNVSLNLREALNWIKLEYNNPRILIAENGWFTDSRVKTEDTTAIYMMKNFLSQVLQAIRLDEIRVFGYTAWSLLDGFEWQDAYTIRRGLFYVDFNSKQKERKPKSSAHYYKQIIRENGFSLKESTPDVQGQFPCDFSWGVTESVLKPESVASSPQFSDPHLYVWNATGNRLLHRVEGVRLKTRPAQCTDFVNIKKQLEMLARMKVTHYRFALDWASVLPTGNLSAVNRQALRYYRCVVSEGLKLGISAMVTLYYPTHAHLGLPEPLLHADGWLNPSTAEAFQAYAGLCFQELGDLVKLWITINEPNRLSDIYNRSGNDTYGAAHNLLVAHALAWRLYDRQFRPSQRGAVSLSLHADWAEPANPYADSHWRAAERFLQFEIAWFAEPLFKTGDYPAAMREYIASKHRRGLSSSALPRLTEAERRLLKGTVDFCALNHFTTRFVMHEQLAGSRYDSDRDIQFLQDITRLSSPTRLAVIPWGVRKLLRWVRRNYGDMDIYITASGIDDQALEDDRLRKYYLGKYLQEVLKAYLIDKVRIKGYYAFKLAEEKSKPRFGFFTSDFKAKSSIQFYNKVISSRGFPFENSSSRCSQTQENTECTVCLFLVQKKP
The molecule B1 gave an IC50 of 150 nM.

A further test deals with T1, Soluble human FGFR1c/KLB receptor …. Put plainly: AlphaScreen competition with biotinylated FGF21. The source holds these as a separate data set.
B2: the IC50 is 3980 nM.

In the case of B3, the IC50 stood at 890 nM.

As for B4, the IC50 is 200 nM.

Molecule B5 displayed an IC50 of 3140 nM.

Consider B6, for which the IC50 was determined as 150 nM.

With B7, the IC50 is 160 nM.

For the molecule B8, the IC50 is 3110 nM.

B9 came in with an IC50 of 70 nM.

Turning to B10, the IC50 is 2580 nM.

As for B11, the IC50 amounted to 50 nM.

On to B12, for which the IC50 is 2500 nM.

Turning to B13, the IC50 came out at 180 nM.

B14 showed an IC50 of 1390 nM.

B15 registered an IC50 of 190 nM.

For the molecule B16, the IC50 was 2870 nM.

Turning to B17, the IC50 came to 2130 nM.

Turning to B18, the IC50 is 50 nM.

In turn, B19 displayed an IC50 of 120 nM.

In the case of B20, the IC50 came out at 130 nM.

Molecule B21 returned a half-inhibitory concentration (IC50) of 420 nM.

By IC50 is commonly meant the concentration that gives 50% inhibition. High values mean weaker potency, low ones greater potency.
